In experiment [1] the target is T1, I59T human lysozyme (human) (UniProt P61626).
T1 sequence: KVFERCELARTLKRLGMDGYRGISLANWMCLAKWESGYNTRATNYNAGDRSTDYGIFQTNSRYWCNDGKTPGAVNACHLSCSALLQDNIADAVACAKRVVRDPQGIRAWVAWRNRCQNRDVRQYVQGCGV

The target in experiment [2] is T1, I59T human lysozyme (human). The source holds these as a separate data set.
Experiment [3] addresses amyloid β peptide Aβ(1–42) (UniProt P05067).

Some results are limits rather than exact numbers.

B1: native α2-macroglobulin (natural protein)
chain: SVSGKPQYMVLVPSLLHTETTEKGCVLLSYLNETVTVSASLESVRGNRSLFTDLEAENDVLHCVAFAVPKSSSNEEVMFLTVQVKGPTQEFKKRTTVMVKNEDSLVFVQTDKSIYKPGQTVKFRVVSMDENFHPLNELIPLVYIQDPKGNRIAQWQSFQLEGGLKQFSFPLSSEPFQGSYKVVVQKKSGGRTEHPFTVEEFVLPKFEVQVTVPKIITILEEEMNVSVCGLYTYGKPVPGHVTVSICRKYSDASDCHGEDSQAFCEKFSGQLNSHGCFYQQVKTKVFQLKRKEYEMKLHTEAQIQEEGTVVELTGRQSSEITRTITKLSFVKVDSHFRQGIPFFGQVRLVDGKGVPIPNKVIFIRGNEANYYSNATTDEHGLVQFSINTTNVMGTSLTVRVNYKDRSPCYGYQWVSEEHEEAHHTAYLVFSPSKSFVHLEPMSHELPCGHTQTVQAHYILNGGTLLGLKKLSFYYLIMAKGGIVRTGTHGLLVKQEDMKGHFSISIPVKSDIAPVARLLIYAVLPTGDVIGDSAKYDVENCLANKVDLSFSPSQSLPASHAHLRVTAAPQSVCALRAVDQSVLLMKPDAELSASSVYNLLPEKDLTGFPGPLNDQDNEDCINRHNVYINGITYTPVSSTNEKDMYSFLEDMGLKAFTNSKIRKPKMCPQLQQYEMHGPEGLRVGFYESDVMGRGHARLVHVEEPHTETVRKYFPETWIWDLVVVNSAGVAEVGVTVPDTITEWKAGAFCLSEDAGLGISSTASLRAFQPFFVELTMPYSVIRGEAFTLKATVLNYLPKCIRVSVQLEASPAFLAVPVEKEQAPHCICANGRQTVSWAVTPKSLGNVNFTVSAEALESQELCGTEVPSVPEHGRKDTVIKPLLVEPEGLEKETTFNSLLCPSGGEVSEELSLKLPPNVVEESARASVSVLGDILGSAMQNTQNLLQMPYGCGEQNMVLFAPNIYVLDYLNETQQLTPEIKSKAIGYLNTGYQRQLNYKHYDGSYSTFGERYGRNQGNTWLTAFVLKTFAQARAYIFIDEAHITQALIWLSQRQKDNGCFRSSGSLLNNAIKGGVEDEVTLSAYITIALLEIPLTVTHPVVRNALFCLESAWKTAQEGDHGSHVYTKALLAYAFALAGNQDKRKEVLKSLNEEAVKKDNSVHWERPQKPKAPVGHFYEPQAPSAEVEMTSYVLLAYLTAQPAPTSEDLTSATNIVKWITKQQNAQGGFSSTQDTVVALHALSKYGAATFTRTGKAAQVTIQSSGTFSSKFQVDNNNRLLLQQVSLPELPGEYSMKVTGEGCVYLQTSLKYNILPEKEEFPFALGVQTLPQTCDEPKAHTSFQISLSVSYTGSRSASNMAIVDVKMVSGFIPLKPTVKMLERSNHVSRTEVSSNHVLIYLDKVSNQTLSLFFTVLQDVPVRDLKPAIVKVYDYYETDEFAIAEYNAPCSKDLGNA
In turn, B1 displayed a decrease of ThT fluorescence at the endpoint of I59T lysozyme fibril formation, lysozyme-to-α2M 10:1 in experiment [1] of more than 90%. In addition, in experiment [2], the I59T lysozyme left soluble at the endpoint (SDS–PAGE of supernatants) was more than 90%. Moreover, the suppression of ThT signal at the endpoint of Aβ(1–42) fibril formation, Aβ-to-α2M 10:1 in experiment [3] was more than 80%.

Source of the values: PMC3581772.
